In patent US20190233493A1 (Sanofi, published 2019):
*1 amine or outer side, *2 acyl side, *3 side chain or, on linkers, in order; H or OH if unused. Primed or numbered codes have the meaning given here. Side-chain parts run from the residue outwards. [ ]: non-standard residue; d: D form. The star is where a group is joined. PEG28′ = polyethylene glycol spacer with 28 ethoxy units (aminoethoxy-ethoxy chain); PEG24′ = polyethylene glycol spacer of 24 ethoxy units; PEG12 = NCCOCCOCCOCCOCCOCCOCCOCCOCCOCCOCCOCCOCCC(=O)O; γGlu = O=C(O)[C@H](CCC(=O)[*:2])N[*:1]; Stearoyl = CCCCCCCCCCCCCCCCCC(=O)*; Palmitoyl = CCCCCCCCCCCCCCCC(=O)*; Nle = CCCC[C@H](N)C(=O)O; Aib = CC(C)(N)C(=O)O

T1: RXFP1 receptor (UniProt Q9HBX9 1-757, limits assumed)
T1 sequence (looked up): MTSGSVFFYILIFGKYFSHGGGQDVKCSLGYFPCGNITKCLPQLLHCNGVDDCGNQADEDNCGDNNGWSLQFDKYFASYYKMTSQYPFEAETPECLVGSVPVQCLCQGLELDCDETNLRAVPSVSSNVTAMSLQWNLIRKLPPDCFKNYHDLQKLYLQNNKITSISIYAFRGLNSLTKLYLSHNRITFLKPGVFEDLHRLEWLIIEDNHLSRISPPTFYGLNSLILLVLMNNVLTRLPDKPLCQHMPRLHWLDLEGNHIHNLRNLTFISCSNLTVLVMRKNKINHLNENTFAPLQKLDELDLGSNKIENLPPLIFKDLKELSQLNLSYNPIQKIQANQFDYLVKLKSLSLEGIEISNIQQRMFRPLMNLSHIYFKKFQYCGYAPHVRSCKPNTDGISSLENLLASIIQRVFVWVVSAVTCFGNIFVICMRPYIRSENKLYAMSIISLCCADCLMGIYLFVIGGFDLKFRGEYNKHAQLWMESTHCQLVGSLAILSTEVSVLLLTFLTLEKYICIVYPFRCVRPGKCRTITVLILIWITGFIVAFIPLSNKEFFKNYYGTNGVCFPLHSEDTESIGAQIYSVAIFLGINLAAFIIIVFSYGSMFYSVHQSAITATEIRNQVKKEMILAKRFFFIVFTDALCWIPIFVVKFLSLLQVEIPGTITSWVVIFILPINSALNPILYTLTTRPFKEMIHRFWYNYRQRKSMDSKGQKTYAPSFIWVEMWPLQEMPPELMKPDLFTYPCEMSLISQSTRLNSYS


target: T1, RXFP1 receptor; assay: cell-based or functional assay

| EC50 (nM), OVCAR 5 cells (cAMP) [nM] | EMax, OVCAR 5 cells (cAMP) [%] | Binder |
| --- | --- | --- |
| 0.61 | 79 | Ac-LEGREKVRAK(Ac)I[Aib][Aib]EG[Nle]STYS[Aib]RKK(Ac)[PEG12]K([γGlu-γGlu-γGlu-Stearoyl])-NH2 (SMILES CCCCCCCCCCCCCCCCCC(=O)N[C@@H](CCC(=O)N[C@@H](CCC(=O)N[C@@H](CCC(=O)NCCCC[C@H](NC(=O)CCOCCOCCOCCOCCOCCOCCOCCOCCOCCOCCOCCOCCNC(=O)[C@H](CCCCNC(C)=O)NC(=O)[C@H](CCCCN)NC(=O)[C@H](CCCNC(=N)N)NC(=O)C(C)(C)NC(=O)[C@H](CO)NC(=O)[C@H](Cc1ccc(O)cc1)NC(=O)[C@@H](NC(=O)[C@H](CO)NC(=O)[C@H](CCCC)NC(=O)CNC(=O)[C@H](CCC(=O)O)NC(=O)C(C)(C)NC(=O)C(C)(C)NC(=O)[C@@H](NC(=O)[C@H](CCCCNC(C)=O)NC(=O)[C@H](C)NC(=O)[C@H](CCCNC(=N)N)NC(=O)[C@@H](NC(=O)[C@H](CCCCN)NC(=O)[C@H](CCC(=O)O)NC(=O)[C@H](CCCNC(=N)N)NC(=O)CNC(=O)[C@H](CCC(=O)O)NC(=O)[C@H](CC(C)C)NC(C)=O)C(C)C)[C@@H](C)CC)[C@@H](C)O)C(N)=O)C(=O)O)C(=O)O)C(=O)O) [peptide of SEQ ID NO: 46] |
| 2.56 | 100 | Ac-LEGREKVRAQI[Aib][Aib]EGMSTWS[Aib]RK[PEG24′]K([γGlu-γGlu-γGlu-Palmitoyl])-NH2 [peptide of SEQ ID NO: 47] |
| 1.65 | 106 | Ac-LEGREKVRAK(Ac)I[Aib][Aib]EG[Nle]STWS[Aib]RKK(Ac)[PEG28′]K([γGlu-γGlu-γGlu-Stearoyl])-NH2 [peptide of SEQ ID NO: 49] |
| 0.25 | 99 | Ac-LEGREKVRAK(Ac)I[Aib][Aib]EG[Nle]STWS[Aib]RKK[PEG28′]K([γGlu-γGlu-γGlu-Stearoyl])-NH2 [peptide of SEQ ID NO: 48] |

target: T1, RXFP1 receptor; assay: cell-based or functional assay; remark: another data set of the same source

| EC50 (nM), cAMP assay in OVCAR 5 cells [nM] | Emax, cAMP assay in OVCAR 5 cells [%] | Binder |
| --- | --- | --- |
| 929 | 70 | Ac-VIKLSGRELVRAQIAISGMSTWSKRSL-NH2 [AcB7-33 C11.23S] |
| 206 | 84 | Ac-VIKLSGRELVRAQIAISGMSTWSKKKK-NH2 [KKKK(AcB7-29 C11.23S)] |
| 1640 | 90 | H-VIKLSGRELVRAQIAISGMSTWSKRSL-NH2 [B7-33 C11.23S] |
